Experimental data published in paper PMC8100176, “Cryo-EM structure of ABCG5/G8 in complex with modulating antibodies” (Communications Biology, 2021).

What was measured:
[1] = biological target: T1, ABCG5/G8 heterodimer (ATP-binding cassette transporters ABCG5 and ABCG8), human, full length (Homo sapiens, UniProt Q9H222;Q9H221); experiment: SPR; Biacore T200, CM5 chip with goat anti-mouse IgG Fc antibody capturing the mouse anti-ABCG5/G8 mAbs (~100 Ru); ABCG5/G8 in DDM micelles, multicycle kinetics, 6 pM to 100 nM, 50 µL/min, 180 s association, 1800 s dissociation (the legend of Fig. 1 says instead that mAb was injected over immobilized ABCG5/G8); settings: both partners purified
T1 construct: ABCG5, human, full length; followed by a TEV protease cleavage site and a 12 His tag on the C-terminus; ABCG8, human, full length; In DDM micelles for SPR and the ATPase assay; in saposin A-based nanodiscs for cryo-EM; also called ABCG5/ABCG8; source: Pichia pastoris (ATUM-9016 strain), membranes extracted with DDM, purified (HisTrap, Superdex 200)
T1 sequence (Q9H222 whole entry, chain 1 of 2): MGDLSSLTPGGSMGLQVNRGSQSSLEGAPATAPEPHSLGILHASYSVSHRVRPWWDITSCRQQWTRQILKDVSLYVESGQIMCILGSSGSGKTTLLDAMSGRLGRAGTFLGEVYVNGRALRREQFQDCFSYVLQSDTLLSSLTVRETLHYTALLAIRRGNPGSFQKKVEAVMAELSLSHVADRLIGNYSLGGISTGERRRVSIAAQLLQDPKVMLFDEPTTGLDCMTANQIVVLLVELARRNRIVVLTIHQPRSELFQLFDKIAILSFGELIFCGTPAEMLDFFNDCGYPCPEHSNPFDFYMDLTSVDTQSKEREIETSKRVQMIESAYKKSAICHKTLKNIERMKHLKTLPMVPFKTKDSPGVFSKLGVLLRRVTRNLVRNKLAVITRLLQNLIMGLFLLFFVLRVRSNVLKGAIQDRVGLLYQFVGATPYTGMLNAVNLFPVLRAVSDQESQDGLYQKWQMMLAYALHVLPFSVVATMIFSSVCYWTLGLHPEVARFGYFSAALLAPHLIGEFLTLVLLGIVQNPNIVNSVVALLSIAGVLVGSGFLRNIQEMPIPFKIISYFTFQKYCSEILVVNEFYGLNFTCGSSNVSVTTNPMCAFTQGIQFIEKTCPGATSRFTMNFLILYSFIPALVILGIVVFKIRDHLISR
T1 sequence (Q9H221 whole entry, chain 2 of 2): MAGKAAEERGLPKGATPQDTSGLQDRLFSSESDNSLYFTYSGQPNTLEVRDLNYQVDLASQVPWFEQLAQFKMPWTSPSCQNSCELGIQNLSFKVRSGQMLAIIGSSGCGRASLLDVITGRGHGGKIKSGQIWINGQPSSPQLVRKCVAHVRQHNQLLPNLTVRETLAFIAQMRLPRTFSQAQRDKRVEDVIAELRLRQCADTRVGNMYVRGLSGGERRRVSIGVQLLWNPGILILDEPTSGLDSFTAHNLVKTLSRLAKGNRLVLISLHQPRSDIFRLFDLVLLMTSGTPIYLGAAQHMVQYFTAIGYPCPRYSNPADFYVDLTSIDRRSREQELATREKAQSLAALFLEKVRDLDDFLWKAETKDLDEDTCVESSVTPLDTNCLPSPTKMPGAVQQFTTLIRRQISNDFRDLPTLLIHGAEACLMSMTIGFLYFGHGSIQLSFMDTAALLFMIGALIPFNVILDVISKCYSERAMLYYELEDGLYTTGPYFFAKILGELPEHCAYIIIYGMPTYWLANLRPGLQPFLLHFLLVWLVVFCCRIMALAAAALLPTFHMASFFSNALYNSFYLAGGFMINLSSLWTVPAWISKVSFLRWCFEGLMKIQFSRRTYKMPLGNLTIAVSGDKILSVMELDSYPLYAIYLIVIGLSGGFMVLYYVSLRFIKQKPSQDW

[2] = biological target: T2, ABCG8 (ATP-binding cassette transporter G8), human, full length, half transporter of the ABCG5/G8 heterodimer (human, UniProt Q9H221); experiment: cryo-EM structure; ternary complex of ABCG5/G8 with Fab 2E10 and Fab 11F4, purified by size exclusion, in saposin A-based nanodiscs; nucleotide-free, inward-facing; 3.3 Å; settings: both partners purified
T2 construct: ABCG8, human, full length; Same chain as the second chain of m1; written alone for the contacts seen in the structure; First residue seen in the cryo-EM structure is Phe28; source: Pichia pastoris (ATUM-9016 strain), expressed with ABCG5 and purified as the heterodimer (HisTrap, Superdex 200)
T2 sequence (Q9H221 whole entry, one chain of several): as the sequence (Q9H221 whole entry, chain 2 of 2) above

| Binder | Kd [1] [nM] | binding result [2] |
| --- | --- | --- |
| monoclonal antibody 2E10 against ABCG5/G8 (antibody, V domains shown, the Fab part of the heavy chain is in PDB 7JR7 (as the heavy chain of m4); as the light chain of m4, in PDB 7JR7; Mouse IgG (captured by goat anti-mouse IgG Fc); also called mAb 2E10; source: produced at the antibody core facility at Oregon Health Science University) VH: QVHLQQSGAELVRPGTSVKMSCKAAGYTFTYWWIGWLKQRPGHGLEWIGDFFPVSGHTNFNEKFRDKATLTADTSSSTAYMQLNSLTSEDSAIYYCARKQDSSGPLYAMDYWGQGTSVTVSS VL: DIQMTQSSSYLSVSLGGRVTITCKASDHINNWLAWYQQKPGNAPRLLISAATSLETGVPSRFSGSGSGKDYTLSIISLQTEDVATYYCQQYWSTPFTFGSGTKLEIK | 0.11 |  |
| monoclonal antibody 11F4 against ABCG5/G8 (antibody, V domains shown, the Fab part of the heavy chain is in PDB 7JR7 (as the heavy chain of m5); as the light chain of m5, in PDB 7JR7; Mouse IgG (captured by goat anti-mouse IgG Fc); also called mAb 11F4; source: produced at the antibody core facility at Oregon Health Science University) VH: DVQLQESGPGLVKPSQSLSLTCTITGYSITSDYAWNWIRQFPGNKLEWMGYISYSGTTYYNPSLKSRFSITRDTSRNQFFLQFNSVTTEDTGTYFCARMITTVYYFDYWGQGTTLTVSS VL: QIVLTQSPTIMSASLGERVTMTCTASSSASSSYLHWYQQKPGSSPKLWIYSTSNLASGVPARFSGSGSGTSYSLTISNMEAEDAATYYCHQHHRSPPTFGAGTKLELK | 0.12 |  |
| Fab fragment of monoclonal antibody 2E10 (Fab, V domains shown, also called Fab 2E10; source: papain cleavage of mAb 2E10, purified by gel filtration chromatography) VH: QVHLQQSGAELVRPGTSVKMSCKAAGYTFTYWWIGWLKQRPGHGLEWIGDFFPVSGHTNFNEKFRDKATLTADTSSSTAYMQLNSLTSEDSAIYYCARKQDSSGPLYAMDYWGQGTSVTVSS VL: DIQMTQSSSYLSVSLGGRVTITCKASDHINNWLAWYQQKPGNAPRLLISAATSLETGVPSRFSGSGSGKDYTLSIISLQTEDVATYYCQQYWSTPFTFGSGTKLEIK |  | binds |
| Fab fragment of monoclonal antibody 11F4 (Fab, V domains shown, also called Fab 11F4; Fab11F4; source: papain cleavage of mAb 11F4, purified by gel filtration chromatography) VH: DVQLQESGPGLVKPSQSLSLTCTITGYSITSDYAWNWIRQFPGNKLEWMGYISYSGTTYYNPSLKSRFSITRDTSRNQFFLQFNSVTTEDTGTYFCARMITTVYYFDYWGQGTTLTVSS VL: QIVLTQSPTIMSASLGERVTMTCTASSSASSSYLHWYQQKPGSSPKLWIYSTSNLASGVPARFSGSGSGTSYSLTISNMEAEDAATYYCHQHHRSPPTFGAGTKLELK |  | binds |
